Measurements published in PMC5691135, “The semiquinone swing in the bifurcating electron transferring flavoprotein/butyryl-CoA dehydrogenase complex from Clostridium difficile” (Nature Communications, 2017).

Target: the molecule itself
Experiment: crystal structure; X-ray structure of the co-produced and co-purified (EtfAB/Bcd)4 complex at 3.1 Å, D state; crystallised in 0.1 M calcium acetate, 14 % (v/v) PEG 400, 0.1 M MES, pH 6.5; protein at 20 mg/ml in 10 mM MOPS and 1 mM FAD, pH 7.0

B1: Butyryl-CoA dehydrogenase (Bcd) of the EtfAB/Bcd complex from Clostridium difficile (enzyme)
chain: MDLNSKKYQMLKELYVSFAENEVKPLATELDEEERFPYETVEKMAKAGMMGIPYPKEYGGEGGDTVGYIMAVEELSRVCGTTGVILSAHTSLGSWPIYQYGNEEQKQKFLRPLASGEKLGAFGLTEPNAGTDASGQQTTAVLDGDEYILNGSKIFITNAIAGDIYVVMAMTDKSKGNKGISAFIVEKGTPGFSFGVKEKKMGIRGSATSELIFEDCRIPKENLLGKEGQGFKIAMSTLDGGRIGIAAQALGLAQGALDETVKYVKERVQFGRPLSKFQNTQFQLADMEVKVQAARHLVYQAAINKDLGKPYGVEAAMAKLFAAETAMEVTTKAVQLHGGYGYTRDYPVERMMRDAKITEIYEGTSEVQRMVISGKLLK
notes: Butyryl-CoA dehydrogenase of Clostridium difficile DSM 1296 (ATCC 9689), gene bcd (CD 1054); N-terminal helical domain 1-116, medial β-sheet domain 117-227, C-terminal helical domain 228-378; Tetramer that forms the core of the (EtfAB/Bcd)4 complex; also called Bcd1; Bcd2
stoichiometry N: 4
